For the series, the target named is T1, NalC-His (Pseudomonas aeruginosa K767) (UniProt Q9HXS0).
T1 sequence: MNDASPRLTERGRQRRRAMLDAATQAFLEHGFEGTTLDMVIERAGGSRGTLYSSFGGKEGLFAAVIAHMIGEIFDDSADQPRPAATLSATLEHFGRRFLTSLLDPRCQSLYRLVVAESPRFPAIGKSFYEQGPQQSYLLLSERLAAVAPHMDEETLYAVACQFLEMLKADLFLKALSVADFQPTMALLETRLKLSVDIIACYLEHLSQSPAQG
As to the kind of experiment: EMSA. A general note: Mobility shift assays separate free from complexed probe on a gel.

In the case of “TTAGGGTTGACGCTGGTCATTTAAGAACTGTATCGTACAGTACTGTTTTGGCAAGCACTTCCGCTCATTCCTCCGCCTTGCCTCCCCGCAGGAGTCCCCCCA (double strand) [PA3720-distal fragment (endpoints I)]”, the binding entry is given as “no binding”. On to “CTAACGAGAAACGCTCTCAGCAAACCGCCTGGAGGCTTGAACGGACCGTCCCGACGGCCCACCATGCGCACCTTCCGACCGCCACCCCGCGAGGCCCGATACCGCTC (double strand) [PA3720-proximal fragment (endpoints II)]”, for which the binding result was “binds”. As for “GAGCGGTATCGGGCCTCGCGGGGTGGCGGTCGGAAGGTGCGCATGGTGGGCCGTCGGGACGGTCCGTTCAAGCCTCCAGGCGGTTTGCTGAGAGCGTTTCTCGTTAGGGTTGACGCTGGTCATTTAAGAACTGTATCGTACAGTACTGTTTTGGCAAGCACTTCCGCTCATTCCTCCGCCTTGCCTCCCCGCAGGAGTCCCCCCA (double strand) [nalC-PA3720 intergenic region]”, the binding result is on record as “binds”.

Source of the values: paper PMC3290565.
